Reference: US20110305670A1

Columns and labels:
[1] = molecular target: envelope glycoprotein of the R5X4 isolate 89.6, on virus (HIV-1 (89.6 isolate)) (UniProt Q73372); assay: cell-based or functional assay
[2] = molecular target: envelope glycoprotein of the R5 isolate YU2, on virus (HIV-1 (YU2 isolate)) (UniProt P35961); assay: cell-based or functional assay
Sequence of UniProt P35961 (P35961 32-843): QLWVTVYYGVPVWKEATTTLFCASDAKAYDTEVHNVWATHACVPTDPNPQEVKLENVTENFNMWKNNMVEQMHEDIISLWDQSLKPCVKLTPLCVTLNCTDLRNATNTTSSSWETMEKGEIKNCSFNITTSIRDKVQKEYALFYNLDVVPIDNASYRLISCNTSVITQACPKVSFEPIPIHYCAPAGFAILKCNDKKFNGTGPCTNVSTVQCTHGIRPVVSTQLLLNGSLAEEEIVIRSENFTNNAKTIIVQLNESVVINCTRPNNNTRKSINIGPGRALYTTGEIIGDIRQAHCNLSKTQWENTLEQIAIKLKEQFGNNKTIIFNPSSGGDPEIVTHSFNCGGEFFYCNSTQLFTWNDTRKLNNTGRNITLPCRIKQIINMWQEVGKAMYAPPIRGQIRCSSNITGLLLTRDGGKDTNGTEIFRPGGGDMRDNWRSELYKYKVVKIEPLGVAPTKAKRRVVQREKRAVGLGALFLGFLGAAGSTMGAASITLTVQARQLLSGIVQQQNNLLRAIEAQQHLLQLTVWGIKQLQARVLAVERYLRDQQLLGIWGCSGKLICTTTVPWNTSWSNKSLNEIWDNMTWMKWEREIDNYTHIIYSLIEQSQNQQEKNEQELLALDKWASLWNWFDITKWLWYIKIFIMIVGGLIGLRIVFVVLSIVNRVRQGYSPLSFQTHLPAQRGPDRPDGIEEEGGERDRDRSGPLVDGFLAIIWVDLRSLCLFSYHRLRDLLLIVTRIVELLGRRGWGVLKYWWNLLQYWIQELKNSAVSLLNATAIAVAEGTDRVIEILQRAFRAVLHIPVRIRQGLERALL

## eCD4-Ig (from UniProt P01730 26-203) (Fc fusion)
[1]
  IC50 difference between CD4-Ig and eCD4-Ig (fold): 50 fold
  neutralization of GFP-expressing HIV-1, IC50: 600 pM
[2]
  IC50 difference between CD4-Ig and eCD4-Ig (fold): 3 fold
  neutralization of GFP-expressing HIV-1, IC50: 2 nM
